Data as given in paper PMC4699388.

Key:
GATA-1^S310A (human) [1] = molecular target: GATA-1^S310A (human) (UniProt P15976); assay: co-IP
GATA-1^S310A (human) [2] = molecular target: GATA-1^S310A (human) (UniProt P15976)

Sequence of UniProt P15976 (P15976 whole entry S310A): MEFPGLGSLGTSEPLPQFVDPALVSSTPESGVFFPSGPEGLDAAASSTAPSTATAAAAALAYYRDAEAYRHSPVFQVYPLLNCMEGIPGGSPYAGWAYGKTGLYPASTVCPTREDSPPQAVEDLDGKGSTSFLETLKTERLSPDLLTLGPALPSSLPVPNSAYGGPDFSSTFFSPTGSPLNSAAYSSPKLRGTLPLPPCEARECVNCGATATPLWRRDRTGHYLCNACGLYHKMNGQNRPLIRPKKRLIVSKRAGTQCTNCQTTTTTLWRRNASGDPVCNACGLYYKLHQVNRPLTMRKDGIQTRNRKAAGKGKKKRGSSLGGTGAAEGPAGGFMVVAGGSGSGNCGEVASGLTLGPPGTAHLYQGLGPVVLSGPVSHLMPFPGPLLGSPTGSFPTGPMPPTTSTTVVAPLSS

## FOG-1 (mouse), in NIH-3T3 cells (from UniProt O35615 1-995) (natural protein)
GATA-1^S310A (human) [1]
  rate of binding to FOG-1: 62
GATA-1^S310A (human) [2]
  relative affinity against wild-type GATA-1 (fold less): 25 fold
